As a reminder, the Kd is the equilibrium constant for the complex coming apart.

No end group written: not given here.

The values below come from patent publication US20080280834A1 (UNIVERSITY OF PITTSBURGH OF THE COMMONWEALTH SYSTEM OF …, published 2008).

First the molecules themselves.
B1: YLGA (peptide)
peptide: YLGA
modifications: not fully specified
notes: Synthetic peptide; also called original tyrosine peptide

The first assay addresses T1, Recombinant Human Fas/TNFRSF6/Fc Chimera (human, UniProt P25445 26-173).
T1 construct: also called FasR; Fas receptor; Fc part of the bought chimera not given
T1 sequence (looked up): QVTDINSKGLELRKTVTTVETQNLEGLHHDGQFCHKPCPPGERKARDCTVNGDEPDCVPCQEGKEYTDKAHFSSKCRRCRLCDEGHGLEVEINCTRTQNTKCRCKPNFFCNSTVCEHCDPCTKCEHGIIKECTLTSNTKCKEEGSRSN
As to the kind of experiment: ELISA, peptide coated, Fas/Fc added. As for the experimental part: (§1) ELISA. Peptides were dissolved in a coating buffer solution (0.05M Sodium Carbonate, 0.02% Sodium Azide, pH=9.6) at the appropriate concentrations to a final concentration of 10 μM. Dilutions were made accordingly to reach desired experimental concentrations. 100 μl aliquots of the peptide solution was added to each well and incubated for 2 hours. All incubations were carried out with shaking at T=37° C. Wells were washed by pipetting solution out of each well, adding 200 μL of washing solution (PBS-Tween; 0.5%), shaking for 15 minutes and emptying each well. Three wash cycles were carried out prior to addition of 200 μL of blocking solution (1% BSA in PBS buffer) to each well followed by incubation for 2 hours. Wells were then washed (as per above procedure) three times. Protein solutions of the appropriate concentrations (Vₛₒₗᵤₜᵢₒₙ 50 μL) were then added and incubated for 2 hours. After washing three times (as per above protocol) Fas specific antibody solution (˜1:20,000) was added to each well in 100 μL aliquots and incubated for 1 hour. After washing three times (as per above protocol) IgM-HRP solution (˜1:20,000) was added to each well in 100 μL aliquots and incubated (with shaking) for 1 hour at T=37° C. Wells were washed three times prior to the addition of ready-to-use TMD, followed by incubation for 30 minutes. 2M H₂SO₄ (3 drops) was added to stop colorimetric reaction and the absorption was taken at 450 nm on a Perkin-Elmer, Victor3 Model automated plate reader. Data was analyzed using standard regression fits in Excel.
(§2) Effect of Amino Acid Substitution on Binding Affinities. […] In the first series of peptides, alterations were made only to the tyrosine residue while retaining the final three amino acids homologous in the parent sequence (LGA).
With B1, the Ka was determined as 2e+08 M⁻¹.
On to SLGA, for which the Ka was 2e+08 M⁻¹.
For TLGA, the Ka stood at 2e+08 M⁻¹.
As to YLGG, the “times less affinity than YLGA” value was around 10 times.
As to GLGA, the binding result is “no binding (tested: concentration range of 1 nM to 1 µM)”.
On to KLGA, for which the Ka came to 8e+06 M⁻¹.
As for YLGI, the “times less affinity than YLGA” value is around 10 times.
YLLA: the “fold decrease in Ka” value was 20 fold.
On to ELGA, for which the Ka was determined as 5e+07 M⁻¹ and the “fold drop off against YLGA” value amounted to 4 fold.
On to LLGA, for which the Ka came out at 1e+07 M⁻¹.
The same measure, in the same setting: the value for WLGA was 8e+07 M⁻¹.
Turning to ALGA, the binding result is “no binding (tested: concentration range of 1 nM to 1 µM)”.
Take DLGA: the Ka came to 5e+07 M⁻¹ and the “fold drop off against YLGA” value was 4 fold.
For the molecule YLAA, the “fold decrease in Ka” value came out at 20 fold.
Consider ILGA, for which the Ka was found to be 9e+06 M⁻¹.
The same measure, in the same setting: the figure for FLGA is 1e+08 M⁻¹.
Regarding YGGA, the “fold decrease in Ka” value was found to be 20 fold.
On to YLGL, for which the “times less affinity than YLGA” value was around 10 times.

Another assay has as its target T1, Recombinant Human Fas/TNFRSF6/Fc Chimera. As to the kind of experiment: ELISA, peptide coated, Fas/Fc added. The source holds these as a separate data set. As for the experimental part: as §1, with “After washing three times (as per above protocol) IgM-HRP solution (˜1:20,000) was added to each well in 100 μL aliquots and incubated (with shaking) for 1 hour at T=37° C.” left out
In general terms: ELISA stands for enzyme-linked immunosorbent assay.
For B1, the Kd worked out at 5 nM.
Same read-out and setting: the value for YLGG was 28 nM.

Another assay addresses T2, TNFR1.
T2 construct: The same entry is used for the Kd and for the EC50 rows
As to the kind of experiment: method for TNFR not described.
With B1, the Kd was 6 nM.
In turn, YLGG showed a Kd of 4 nM.

For another assay, the target named is T1, Recombinant Human Fas/TNFRSF6/Fc Chimera. As to the kind of experiment: ELISA, peptide coated, Fas/Fc added. The source holds these as a separate data set. The procedure: as §1, §2
For B1, the Ka worked out at 2e+08 M⁻¹.
Still for that read-out and setting: the value for YLGG was 4e+07 M⁻¹.
The same measure, in the same setting: the figure for YLGI is 3e+07 M⁻¹.
With YLGT, the binding result is on record as “no binding (tested: concentration range of 1 nM to 1 µM)”.
As to YLGL, the Ka came out at 3e+07 M⁻¹.

The next assay shares this target. As to the kind of experiment: ELISA, peptide coated, Fas/Fc added. The source holds these as a separate data set. As for the experimental part:
as §1
Effect of Flanking Residues on Binding Affinities. […] While this work has shown that tetrapeptides based from the original protein sequence can inhibit the FasL/FasR cell death pathway at low nM concentrations, the ability to improve upon this was examined by looking at the extended sequence on both the N-terminal and C-terminal side of the YLGA (SEQ ID NO:1) motif. Peptides up to 12 amino acids in length were synthesized based on the α-Met sequence and their Kₐ values measured for the Fas receptor, Table 7.
Consider HIYLGATNYIY [HI YLG ATN YIY], for which the Ka stood at 3e+08 M⁻¹.
Still for that read-out and setting: the figure for HHIYLGATN [HHI YLG ATN] is 3e+08 M⁻¹; for HHIYLGA [HHI YLG A] it is 3e+08 M⁻¹; for HHIYLGATNYIY [HHI YLG ATN YIY] it is 3e+08 M⁻¹.
Take HHIYLGATNYI [HHI YLG ATN YI]: the Ka was determined as 3e+08 M⁻¹.
On the same count and under the same terms, the value for HHIYLGAT [HHI YLG AT] was 3e+08 M⁻¹.
Same read-out and setting: the figure for YLGATNYIY [YLG ATN YIY] is 3e+08 M⁻¹; for IYLGATNYIY [I YLG ATN YIY] it is 3e+08 M⁻¹; for HHIYLGATNY [HHI YLG ATN Y] it is 3e+08 M⁻¹.

The next assay has the same target. As to the kind of experiment: ELISA, peptide coated, Fas/Fc added. The source holds these as a separate data set. The procedure:
as §1, §2
In the case of B1, the Ka was 2e+08 M⁻¹ and the Kd was found to be 5 nM.
The corresponding values for SLGA are 2e+08 M⁻¹ and 5 nM.
The corresponding values for YLGG are 4e+07 M⁻¹ and 28 nM.
For LLGA, in that order: 1e+07 M⁻¹ and 88 nM.
Take WLGA: the Ka was determined as 8e+07 M⁻¹ and the Kd stood at 13 nM.
For YAGA, in that order: 3e+08 M⁻¹ and 4 nM.
The corresponding values for FLGA are 1e+08 M⁻¹ and 10 nM.

The target of the next assay is T2, TNFR1. As to the kind of experiment: cell-based or functional assay.
T2 sequence (P19438 whole entry): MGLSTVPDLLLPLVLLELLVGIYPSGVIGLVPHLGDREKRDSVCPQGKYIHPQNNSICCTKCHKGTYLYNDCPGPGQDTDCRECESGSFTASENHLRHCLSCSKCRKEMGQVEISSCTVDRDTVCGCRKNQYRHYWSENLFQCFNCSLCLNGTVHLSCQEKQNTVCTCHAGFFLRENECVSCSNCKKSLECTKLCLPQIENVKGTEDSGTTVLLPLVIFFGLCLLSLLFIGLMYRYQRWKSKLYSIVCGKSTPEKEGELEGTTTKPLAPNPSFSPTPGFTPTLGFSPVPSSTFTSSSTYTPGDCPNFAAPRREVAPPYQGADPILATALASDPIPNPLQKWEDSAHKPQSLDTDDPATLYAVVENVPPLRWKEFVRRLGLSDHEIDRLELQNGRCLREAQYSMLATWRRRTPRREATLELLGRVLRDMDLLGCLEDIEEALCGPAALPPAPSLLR
On to B1, for which the “EC50 (TNFR)” value is 11 nM.
Regarding YLGG, the “EC50 (TNFR)” value is 8 nM.

The target in another assay is T3, Fas receptor on Jurkat cells (UniProt P25445 26-335, limits assumed).
T3 sequence (looked up): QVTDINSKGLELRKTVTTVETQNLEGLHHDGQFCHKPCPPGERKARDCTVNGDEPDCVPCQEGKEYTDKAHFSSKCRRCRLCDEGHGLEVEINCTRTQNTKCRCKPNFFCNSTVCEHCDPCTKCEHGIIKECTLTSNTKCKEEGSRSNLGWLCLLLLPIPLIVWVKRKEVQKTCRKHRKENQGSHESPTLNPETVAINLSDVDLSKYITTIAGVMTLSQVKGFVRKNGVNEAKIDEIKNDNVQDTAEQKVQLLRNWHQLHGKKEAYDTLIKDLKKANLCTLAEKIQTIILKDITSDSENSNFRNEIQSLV
In words: cell-based or functional assay.
For the molecule B1, the “EC50 (FasR)” value worked out at 6 nM.
Same read-out and setting: the figure for YLGG is 52 nM.

In the next assay the target is T1, Recombinant Human Fas/TNFRSF6/Fc Chimera. As to the kind of experiment: ELISA, peptide coated, Fas/Fc added. This is another data set of the same source. As for the experimental part:
as §1, §2
With B1, the Ka was 2e+08 M⁻¹.
On the same count and under the same terms, the value for YIGA was 2e+08 M⁻¹; that for YVGA was 2e+08 M⁻¹.
Same read-out and setting: the value for YAGA was 3e+08 M⁻¹.
YFGA: the binding result is given as “no binding (tested: concentration range of 1 nM to 1 µM)”.
For YTGA, the binding result is “no binding (tested: concentration range of 1 nM to 1 µM)”.
As for YGGA, the Ka was 1e+07 M⁻¹.

Another assay deals with T3, Fas receptor on Jurkat cells. In words: cell-based or functional assay. This is another data set of the same source.
B1: the “EC50 (nM), cell viability of Jurkat cells exposed to recombinant FasL” value was determined as 6 nM.
Same read-out and setting: the figure for SLGA is 6 nM; for YLGG it is 52 nM.
Same read-out and setting: the figure for LLGA is 93 nM; for YAGA it is 6 nM.

The target in the next assay is T1, Recombinant Human Fas/TNFRSF6/Fc Chimera. As to the kind of experiment: ELISA, peptide coated, Fas/Fc added. The source holds these as a separate data set. As for the experimental part: as §1, §2
B1: the Ka turned out to be 2e+08 M⁻¹.
With YLIA, the binding result was “no binding (tested: concentration range of 1 nM to 1 µM)”.
Consider YLLA, for which the Ka is 1e+06 M⁻¹.
Same read-out and setting: the figure for YLAA is 1e+06 M⁻¹.
